Measured values taken from the NTF2 design screens of Basanta et al. (2020).

Assay: protease stability score; higher = more stable; yeast display proteolysis, trypsin and chymotrypsin;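 note: relative to predicted unfolded state with 0 unfolded-like and 1 meaning tenfold more protease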

Which protease stability score does the source give for “DEFEKTAEELLRRLVKNMKTGNEDMISHLLDPNARLEVGEFEYHGREQLVRFLVHLRVDHVDLHHVEVQGDKLILDTRTDGTFNGRRRNIRETIIIRKVNGKWIIESYHVE” here?
The protease stability score was 1.46.

With “SEMEETLKKAFHNLLEHIKTGDEQLLKEFLDPNTKVEVDGVELIGMEKFIELMREIEKRVDVIRSLELEHWEVVGNKIRMEVRLNIEINGKDTFTRTHLIALKVNGRWILHSVRIG” as the sequence, how does the protease stability score read?
Its protease stability score is 1.75.

Which protease stability score does the source give for “DELEHFLLEILRELAHALETGDEERLTDLIDPHARINVDGVEIHGMDHWRELLHQIRFSIEDMHITHVEVQGDKIIIHGRVHVSNEVDGVENRSETHEIWYMKKFDGRWRVTTIEVK” here?
The protease stability score was 1.3.

For “DEVKKFLDELLEILRKYSETGDEDSYTEMFDPNTRLLFEGRKFVGREEAIKFLRRVDVFSIKNFTMRHVETQGDWLHIDGEVLLLIIFNGKTFELKTKITFIMLKIDGRWILHAEEIR”, which protease stability score is on record?
Its protease stability score is 1.71.

For “DEERKRSEELMKLEIHVFETGDWEWYREMADPNTRMHIDGKDFHGREEIYKFLHEHHLRFKNIKIHFEHIELQGEYVHNDVIIHVNGVDLIAHIIIVVVNGRVTHSEFQLE”, which protease stability score is on record?
Its protease stability score is 1.17.

For “SEKERLVLEIYWKIIHSRNTGDEDHWEELADPDMKLTINGVEFHGREATSKFFKEHVKRFGWEFHIHVDRINAFDGRVESHVIIHIQVGDKHIEIEMREEYVVINGVLKEIRILDR”, which protease stability score is on record?
The protease stability score was 2.1.

Which protease stability score does the source give for “DEDKESAEEAFKVWVRDLMTGDEDSLRRLVDPRTLVEVGDKHFHGRDMFVHLEKLQRERADHIRIELHDFDIQGEKIHLDVRVILEQGEKRVFLRTHYLILKVNGRWIVKSLWIQ” here?
The protease stability score was 0.921.

With “SEEKEDIDLAMEIFLHALETGDWEELLRQMDPNVRIVIGDKETHGREEFELTLLKLGIDHFHIKDMKLINGRLHLDTRVHFNGVTVQTEIIIVKFNGRWVIEEMDFQ” as the sequence, how does the protease stability score read?
The protease stability score was 2.4.

For “DEDEKYLKEFLRILIEARRTGDEQLLERLMDPRVKLDNENHFSHGREDAVRHLNEHSKEARLESVEVHDVRVFNGVILWDVRIHGDIDGRRDTFNVIIIILKVNGRWRLREFIFT”, which protease stability score is on record?
Its protease stability score is 1.39.

With “DEREKLAKKFLELFLHYIETGDEEVLRKLLDPSTRLEVNGRDNHGWKMFIWLLRELRIHRVHMELKVTDIQGDYVRNEGRLRSDVEYGDKRFETEYMVIIFLEKVDGRWHLHSFEVD” as the sequence, how does the protease stability score read?
The protease stability score was 1.56.

Which protease stability score does the source give for “SEIDHILKLLAELWIRLWLTGDEEIIEELADPNVRLDINGKDAHGWERLSEVLRLEIKEMRIDHHRLREIRVQGNKSEVDGRLRGTFNGKHREVDVHIEIEVVNGRFKRIRIEFR” here?
Its protease stability score is 1.42.

With “DEFHELARHALKLFKDTMDTGDEHTLEHLVDPNVRLLVDGQEIHGREAMEEFWRRVPNLRLYFHDVRVIGDKIIVDGKIEYGDKEIDSRIYLRKINGRWRFESVELR” as the sequence, how does the protease stability score read?
Its protease stability score is 1.4.

With “EERNKFAEDFSRIDTESHRTGDEHSLLRLFDPHARIHQGDFEMHGWEEFSRIMRHEIERYKNATFEVRVDRVDVQGDKMISDGRLHIHQGDKIREYRIFIIVTKVNGQWHIEEVHIV” as the sequence, how does the protease stability score read?
Its protease stability score is 1.11.

With “DEEEKLLEKMFKDLIRDLLTGDEESFHKLADPNMRLNQGDFQIHGWEDVQRVLRWRMHEMRIHHLHIHHLHFFDGKLHIDGESDIEFNGVRQNRRVEILIKKVDGKWELKEVIIR” as the sequence, how does the protease stability score read?
The protease stability score was 2.28.

With “SEDEEDFERAMKLLMHDIRTGNEESLNRLFDPNVKININGKELWGREKWIEFLERVDHLDVHDMKIRHLDIQGEKVRAEVHIDRRIKIGDKETRVKVDIRMIAVKVNGRWLLREISVE” as the sequence, how does the protease stability score read?
Its protease stability score is 2.1.

With “DEDEEITERIIRLLLNAWMTGDEEMLKRLFDPHVRIDQGDKNLIGWEELERETRRIDHIRLDLRIKHIKVYDGRVEINSFLHVDLHINGVTLHHELRMHIIIEKVDGRWIIHSQKLE” as the sequence, how does the protease stability score read?
The protease stability score was 1.25.

Which protease stability score does the source give for “SEEEEMDRHYSNLWNHLMFTGDWHWLEKLVDPHTRTIVDGQERHGREEALKVLKEVLEILGADVIRIHEMRYQGEKSNLVIEIKQGDKRLRVVIEVVVIDGVMHSLDLEIRHE” here?
Its protease stability score is 0.795.

For “SEETKNLEHWAKRFEHALETGDEEVLTKLFDPNVRLHFNGVNIHGWELYRKYHQRVDHVHFRIRSVHVYDGRVDMHTEVENRQGDKSHRMDTRLFAIKVNGVWLIESFEVH”, which protease stability score is on record?
Its protease stability score is 0.486.

Which protease stability score does the source give for “DENEHQTRIWNEIFIKIFLTGDWKRLSDMADPHVRSIINGQDLHGMENLSKIVEEIREELRVRSVHLHDIKVINGVAKVDTRLDMEYGDKRTDYNIEIHTLKVDGRWHLKEIKLV” here?
The protease stability score was 0.292.

With “DKEEDEFRKAFEIVRHTWKTGDEHLLEKLMDPDARMDVNGVHNHGREEATKTVFEIVEKIKNARLEFKRIEVYDGRIFFHMDWDVNGVRVFVLIISIKVDGRWRHKSYSEDRV” as the sequence, how does the protease stability score read?
The protease stability score was 0.856.

Which protease stability score does the source give for “SEEHEFWERLARLTLHWLETGDWDKMNKNADPNVRTEVNGQELHGRESTTEIMRRDEKFFKNARFHLESMDVQGDKVHLIFEVDYNGRTIRRHLDWVIINGRFKEIRVEIR” here?
The protease stability score was 1.17.

With “DHREHRSHRIAEWILRNLVTGNEDEISKLLDPDARVIINGQEVIGREEINRMLRHVFNEIRIHDIEIRDLEIQGEFAFVDTRLDGEFDGRRIKQKSELRIVVINGRVRELEIRIH” as the sequence, how does the protease stability score read?
The protease stability score was 1.52.

Which protease stability score does the source give for “DEDHRWLKELMELFSRALSTGNEKELTELMDPNTRIEVDGVDLIGREDWRHFLERVDHLEAKRVEIKRVKVYDGKIEMDTTEDGVIEINGQNVRTIVHSQVFVLKVDGRWIFRKMSRR” here?
The protease stability score was 1.42.

For “REEEHAMKSMIDLWIESMNTGDERSISEMADPNAKNRVGDKTFVGMELLSHILFKLVKELGVRIEDHKIHDIKVQGDKIVSHVRLHLKYGDKEEDHETIIYTRKINGRWLIERVEVI”, which protease stability score is on record?
The protease stability score was 1.53.

With “SELEKHIKDYFDYIFTLLLTGDWDTLWRMADPNVRFHAEGHEIHGRELWEEFIRKFKNIKVHLHRSSLIGDYLFLDGELEINGRRIRTEIELVIVNGRLTEVSHRLR” as the sequence, how does the protease stability score read?
The protease stability score was 0.807.
